From patent US20190032033A1 (HEPTARES THERAPEUTICS, published 2019)
Where two headings read alike, the source gives them in different places.

Tests used:
[1] = target: T1, thioredoxin-A2AR fusion protein (human, UniProt P29274 6-316); assay: analytical SEC of purified NECA-bound A2AR mixed with mini-Gs/q (1:1.2 molar ratio) and Coomassie-stained SDS-PAGE of fractions 10-20
T1 construct: range 6-316; gp67 leader is cleavable; not shown: His10 tag, TEV protease cleavage site and thioredoxin

[2] = target: rat neurotensin receptor NTSR1 (residues 43-396) (rat, UniProt P20789 43-396); assay: cell-based or functional assay
Sequence of rat neurotensin receptor NTSR1 (residues 43-396) (P20789 43-396 limits assumed): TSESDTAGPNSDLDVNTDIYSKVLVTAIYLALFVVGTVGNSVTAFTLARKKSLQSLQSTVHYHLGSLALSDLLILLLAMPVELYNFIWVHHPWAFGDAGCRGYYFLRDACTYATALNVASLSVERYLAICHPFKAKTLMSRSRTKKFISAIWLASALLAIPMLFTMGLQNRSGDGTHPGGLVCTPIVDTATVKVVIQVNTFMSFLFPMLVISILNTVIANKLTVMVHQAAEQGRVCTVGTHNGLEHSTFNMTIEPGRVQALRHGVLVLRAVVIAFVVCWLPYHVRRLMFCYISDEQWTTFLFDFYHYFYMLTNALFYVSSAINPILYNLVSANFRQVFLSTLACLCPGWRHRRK

[3] = target: T2, C-terminally truncated human A2AR (residues 1-317, N154A) (human, UniProt P29274 1-317); assay: cell-based or functional assay
T2 sequence (P29274 1-317 N154A): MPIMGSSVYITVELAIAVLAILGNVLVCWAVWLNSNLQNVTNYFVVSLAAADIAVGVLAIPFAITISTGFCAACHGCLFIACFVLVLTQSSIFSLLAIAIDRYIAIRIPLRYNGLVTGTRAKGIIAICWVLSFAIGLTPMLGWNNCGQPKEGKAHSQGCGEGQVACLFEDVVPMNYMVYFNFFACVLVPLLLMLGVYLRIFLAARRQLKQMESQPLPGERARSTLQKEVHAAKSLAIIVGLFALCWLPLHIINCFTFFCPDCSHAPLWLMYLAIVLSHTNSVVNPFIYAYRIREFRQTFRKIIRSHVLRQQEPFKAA

[4] = target: T2, C-terminally truncated human A2AR …; assay: thermostability assay, DM-solubilised NECA-bound A2AR
[5] = target: T3, human adenosine A2A receptor (residues 1-308, N154A) (human, UniProt P29274 1-308); assay: cell-based or functional assay
T3 sequence (P29274 1-308 N154A): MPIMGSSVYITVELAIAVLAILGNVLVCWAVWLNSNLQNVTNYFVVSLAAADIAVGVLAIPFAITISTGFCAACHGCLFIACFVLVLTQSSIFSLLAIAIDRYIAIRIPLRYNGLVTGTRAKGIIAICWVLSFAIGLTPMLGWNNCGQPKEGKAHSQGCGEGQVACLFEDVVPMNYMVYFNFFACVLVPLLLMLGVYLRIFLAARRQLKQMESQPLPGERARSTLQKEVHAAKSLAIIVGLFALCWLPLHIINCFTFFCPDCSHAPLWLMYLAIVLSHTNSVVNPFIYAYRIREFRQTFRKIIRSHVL

[6] = target: T3, human adenosine A2A receptor (residues …); assay: cell-based or functional assay; remark: listed apart in the source
[7] = target: T4, human angiotensin II type 1 receptor AT1R (residues 1-359) (human, UniProt P30556 1-359); assay: cell-based or functional assay
T4 sequence (looked up): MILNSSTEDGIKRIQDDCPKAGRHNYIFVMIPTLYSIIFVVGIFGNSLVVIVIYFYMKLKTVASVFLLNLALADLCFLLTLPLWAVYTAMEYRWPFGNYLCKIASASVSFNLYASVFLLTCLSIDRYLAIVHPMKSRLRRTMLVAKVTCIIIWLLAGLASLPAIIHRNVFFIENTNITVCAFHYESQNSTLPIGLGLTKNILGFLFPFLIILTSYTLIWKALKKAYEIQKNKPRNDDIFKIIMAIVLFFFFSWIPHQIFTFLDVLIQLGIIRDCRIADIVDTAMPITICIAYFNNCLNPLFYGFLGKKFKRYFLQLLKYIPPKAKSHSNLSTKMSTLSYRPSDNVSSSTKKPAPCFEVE

[8] = target: T1, thioredoxin-A2AR fusion protein; assay: analytical SEC of purified NECA-bound A2AR mixed with mini-Gs/q (1:1.2 molar ratio) and Coomassie-stained SDS-PAGE of fractions 10-20; remark: listed apart in the source
[9] = target: β1AR-WT (wild type-like turkey β1 adrenergic receptor construct) (turkey, UniProt P07700 33-423, limits assumed); assay: cell-based or functional assay
Sequence of β1AR-WT (wild type-like turkey β1 adrenergic receptor construct) (P07700 other isoform, or with tags, fused parts or gaps limits assumed): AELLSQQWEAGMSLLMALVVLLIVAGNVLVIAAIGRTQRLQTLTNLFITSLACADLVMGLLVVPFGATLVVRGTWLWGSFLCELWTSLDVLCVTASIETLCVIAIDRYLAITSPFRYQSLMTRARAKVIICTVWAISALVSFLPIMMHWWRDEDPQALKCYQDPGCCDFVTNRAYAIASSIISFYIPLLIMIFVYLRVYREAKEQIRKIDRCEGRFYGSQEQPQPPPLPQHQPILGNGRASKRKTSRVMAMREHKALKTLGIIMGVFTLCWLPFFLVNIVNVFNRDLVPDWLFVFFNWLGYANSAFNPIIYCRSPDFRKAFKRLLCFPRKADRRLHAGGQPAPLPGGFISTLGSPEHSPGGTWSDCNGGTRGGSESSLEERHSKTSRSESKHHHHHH

T1 sequence (P29274 other isoform, or with tags, fused parts or gaps): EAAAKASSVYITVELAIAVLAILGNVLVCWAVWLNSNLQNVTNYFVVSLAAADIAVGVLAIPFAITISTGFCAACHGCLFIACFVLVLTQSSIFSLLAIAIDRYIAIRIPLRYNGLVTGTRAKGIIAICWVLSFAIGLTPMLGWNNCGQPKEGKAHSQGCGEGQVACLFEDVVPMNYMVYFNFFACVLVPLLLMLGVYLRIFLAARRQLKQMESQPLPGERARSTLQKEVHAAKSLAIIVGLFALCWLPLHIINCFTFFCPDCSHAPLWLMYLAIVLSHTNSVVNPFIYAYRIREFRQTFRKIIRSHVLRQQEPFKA

B1: mini-Gs/q58 (other)
chain: MGHHHHHHENLYFQGIEKQLQKDKQVYRATHRLLLLGADNSGKSTIVKQMRILHGGSGGSGGTSGIFETKFQVDKVNFHMFDVGGQRDERRKWIQCFNDVTAIIFVVDSSDYNRLQEALNDFKSIWNNRWLRTISVILFLNKQDLLAEKVLAGKSKIEDYFPEFARYTTPEDATPEPGEDPRVTRAKYFIRDEFLRISTASGDGRHYCYPHFTCAVDTENARRIFAAVKDTILQLNLKEYNLV
[1]
  binding result: no binding
[2]
  apparent Tm of DDM-solubilised 3H-NTS-bound NTSR1 (alone 24.9 °C): 25.1 °C
[3]
  apparent Tm of DM-solubilised 3H-NECA-bound A2AR (alone 26.9 °C): 26.9 °C
[4]
  binding result: no binding (tested: 25 µM)

B2: Mini-Gs414 (other)
chain: GIEKQLQKDKQVYRATHRLLLLGADNSGKSTIVKQMRIYHGGSGGSGGTSGIFETKFQVDKVNFHMFDVGGQRDERRKWIQCFNDVTAIIFVVDSSDYNRLQEALNDFKSIWNNRWLRTISVILFLNKQDLLAEKVLAGKSKIEDYFPEFARYTTPEDATPEPGEDPRVTRAKYFIRDEFLRISTASGDGRHYCYPHFTCAVDTENARRIFNDCRDIIQRMHLRQYELL
[5]
  ΔTm of 3H-NECA-bound A2AR with mini-Gs414 against A2AR only, in decylmaltoside (DM): 6.8 °C
  ΔTm of 3H-NECA-bound A2AR with mini-Gs414 against A2AR only, in dodecylmaltoside (DDM): 7.2 °C
  ΔTm of 3H-NECA-bound A2AR with mini-Gs414 against A2AR only, in octylglucoside (OG): 13.4 °C
[6]
  apparent Tm of DM-solubilised NECA-bound A2AR: 32.9 °C

B3: mini-Gs/q70 (other)
chain: GIEKQLQKDKQVYRATHRLLLLGADNSGKSTIVKQMRILHGGSGGSGGTSGIFETKFQVDKVNFHMFDVGGQRDERRKWIQCFNDVTAIIFVVDSSDYNRLQEALNDFKSIWNNRWLRTISVILFLNKQDLLAEKVLAGKSKIEDYFPEFARYTTPEDATPEPGEDPRVTRAKYFIRDEFLRISTASGDGRHYCYPHFTCAVDTENARRIFNDCKDIILQMNLREYNLV
notes: also called mini-Gs/q chimera; Gs/q construct 70
[2]
  apparent Tm of DDM-solubilised 3H-NTS-bound NTSR1 (alone 24.9 °C): 32.5 °C
[7]
  apparent Tm of digitonin-solubilised 125I-AngII-bound AT1R (alone 22.6 °C): 30.7 °C
[3]
  apparent Tm of DM-solubilised 3H-NECA-bound A2AR (alone 26.9 °C): 27.5 °C
[4]
  binding result: no binding (tested: 25 µM)
[8]
  binding result: no binding

B4: Mini Gs393 (other)
chain: GIEKQLQKDKQVYRATHRLLLLGADNSGKSTIVKQMRILHGGSGGSGGTSGIFETKFQVDKVNFHMFDVGGQRDERRKWIQCFNDVTAIIFVVDSSDYNRLQEALNDFKSIWNNRWLRTISVILFLNKQDLLAEKVLAGKSKIEDYFPEFARYTTPEDATPEPGEDPRVTRAKYFIRDEFLRISTASGDGRHYCYPHFTCAVDTENARRIFNDCRDIIQRMHLRQYELL
[9]
  apparent Tm of β1AR-WT complex in decylmaltoside (receptor alone 20.4 °C): 30.5 °C
  apparent Tm of β1AR-WT complex in dodecylmaltoside (receptor alone 25.9 °C): 34.1 °C
  apparent Tm of β1AR-WT complex in nonylglucoside (uncoupled receptor did not survive): 24.7 °C
  apparent Tm of β1AR-WT complex in octylglucoside (uncoupled receptor did not survive): 19.7 °C
